Here are results for one molecule from patent US20200283507A1 (US Dept. of Health and Human Services, published 2020).

No end group written: not given here.

The target in test [1] is T1, Hu/NoV/GII.14/M7/1999/U.S. VLP (human norovirus GII.14).
T1 construct: mature; baculovirus VLP; VP2 may be present
The test is described as follows: VLP ELISA. (In general: An ELISA detects its analyte on a solid surface through an enzyme-linked reagent.)

Test [2] has as its target T2, Hu/GII.6/Bethesda/2012/U.S. VLP (human norovirus GII.6).
T2 construct: mature; baculovirus VLP; VP2 may be present
The test is described as follows: VLP ELISA.

Test [3] concerns the target T3, Hu/NoV/GII.7/DC119/U.S. VLP (human norovirus GII.7).
T3 construct: mature; baculovirus VLP; VP2 may be present
The test is described as follows: VLP ELISA.

Test [4] deals with T4, Hu/NoV/GII.4/CHDC4871/1977/U.S. VLP (human norovirus GII.4).
T4 construct: mature; baculovirus VLP; VP2 may be present
As to the kind of experiment: VLP ELISA.

Test [5] deals with T5, Hu/NoV/GII.4/RockvilleD1/2012/U.S. VLP (human norovirus GII.4).
T5 construct: mature; baculovirus VLP; VP2 may be present
As to the kind of experiment: VLP ELISA.

Test [6] addresses T6, Hu/NoV/GII.1/Hawaii/1971/U.S. VLP (human norovirus GII.1).
T6 construct: mature; baculovirus VLP; VP2 may be present
The test is described as follows: VLP ELISA.

In test [7] the target is T7, Hu/NoV/Snow Mountain/GII.2/U.S. VLP (human norovirus GII.2).
T7 construct: mature; baculovirus VLP; VP2 may be present
As to the kind of experiment: VLP ELISA.

The target of test [8] is T8, Hu/NoV/GII.3/CHDC4031/1988/U.S. VLP (human norovirus GII.3).
T8 construct: mature; baculovirus VLP; VP2 may be present
As to the kind of experiment: VLP ELISA.

Test [9] concerns the target T9, Hu/NoV/GII.4/HS-191/2001/U.S. VLP (human norovirus GII.4).
T9 construct: mature; baculovirus VLP; VP2 may be present
As to the kind of experiment: VLP ELISA.

Test [10] addresses T10, Hu/NoV/GII.4/MD145-12/1997/U.S. VLP (human norovirus GII.4).
T10 construct: mature; baculovirus VLP; VP2 may be present
The test is described as follows: VLP ELISA.

Test [11] has as its target T11, Hu/NoV/GII.4/MD2004/2004/U.S. VLP (human norovirus GII.4).
T11 construct: mature; baculovirus VLP; VP2 may be present; also called MD2004 VLP
The test is described as follows: VLP ELISA.

In test [12] the target is T12, Hu/NoV/GII.2/Henryton/1971/U.S. VLP (human norovirus GII.2).
T12 construct: mature; baculovirus VLP; VP2 may be present
As to the kind of experiment: VLP ELISA.

Test [13] addresses T13, Toronto VP1 peptide 507-523 (NoV Toronto strain, also: biotinylated (position not given here)).
T13 construct: 17-mer of the P domain peptide library
T13 peptide: TVPPNGYFRFESWVNPF
As to the kind of experiment: ELISA on biotinylated peptide. The procedure: (§1) For this assay, a peptidic library of 67 peptides corresponding to the P domain of the VP1 amino acid sequence from NoV Toronto strain was synthetized. The peptides were 17 amino acids long, with 5 amino acids overlapping with the previous and the next peptide of the sequence. Neutravidin coated plates (PIERCE®) were used for this assay. The plates were coated with each biotinylated peptide in duplicates (2 μl of peptide/100 μl of PBS 0.1% BSA per well) overnight at 4° C. Then, after washing the plates, 100 ng/well of 7.5 VHH were added and the plates were incubated for 2 hours at room temperature. The plates were washed and incubated with rabbit anti-VHH serum (1/8,000) and HRP-conjugated goat anti-rabbit immunoglobulin G (1:2,000) (KPL). The signal was developed with ABTS/H₂O₂.

Test [14] addresses T14, Toronto VP1 peptide 522-538 (NoV Toronto strain, also: biotinylated (position not given here)).
T14 construct: 17-mer of the P domain peptide library
T14 peptide: PFYTLAPMGTGNGRRRI
The test is described as follows: ELISA on biotinylated peptide. The procedure: as §1

In test [15] the target is T15, Toronto VP1 peptide 517-533 (NoV Toronto strain, also: biotinylated (position not given here)).
T15 construct: 17-mer of the P domain peptide library
T15 peptide: ESWVNPFYTLAPMGTGN
As to the kind of experiment: ELISA on biotinylated peptide. The procedure: as §1

For test [16], the target named is T16, Toronto VP1 peptide 512-528 (NoV Toronto strain, also: biotinylated (position not given here)).
T16 construct: 17-mer of the P domain peptide library, captured on neutravidin plates
T16 peptide: GYFRFESWVNPFYTLAP
The test is described as follows: ELISA on biotinylated peptide. The procedure:
as §1

For test [17], the target named is T10, Hu/NoV/GII.4/MD145-12/1997/U.S. VLP. The test is described as follows: cell-based or functional assay.

B1: VHH 7.5 (VHH)
VHH: QVKLQESGGGLVQAGESLRLSCAASGSNFSINGVGWYRQAPGKQRELVAGITNGGYTSYADSVKGRFTISTDNAKNTVYLQMNSLRPEDTAVYYCNANFQIHRSGADYVRNYWGQGTQVTVSA
notes: llama VHH, MD2004 library; pHEN6, C-terminal His6 tag; also called clone 7.5
On to B1, for which the “minimum concentration of VHH able to recognize 100 ng of VLP” value was found to be 1 ng/well in test [1]; 1 ng/well in test [2]; 1 ng/well in test [3]; 2 ng/well in test [4]; 0.5 ng/well in test [5]; 1 ng/well in [6]. Besides, the “minimum concentration of VHH able to recognize 100 ng of VLP” value in test [7] amounted to 2 ng/well; in test [8], 1 ng/well; in test [9] it was 2 ng/well; in test [10], 0.5 ng/well; in test [11], 0.5 ng/well; in test [12], 1 ng/well. The binding result in test [13] was “no binding (tested: 100 ng/well)”; in [14] it was “no binding (tested: 100 ng/well)”; in [15] it was “binds”; in test [16], “binds”. Moreover, the “HAI titer, B Rh+ RBC” value in test [17] stood at 0.78 µg/mL.
